Experimental data: publication PMC3459862

Target: GST-WC-1 mini, LXXLL motif mutant (LAQLL changed to LAQAA) (Neurospora crassa) (UniProt Q01371)
Experiment: pull-down

Sequence of UniProt Q01371 (Q01371 838-1000, change not shown): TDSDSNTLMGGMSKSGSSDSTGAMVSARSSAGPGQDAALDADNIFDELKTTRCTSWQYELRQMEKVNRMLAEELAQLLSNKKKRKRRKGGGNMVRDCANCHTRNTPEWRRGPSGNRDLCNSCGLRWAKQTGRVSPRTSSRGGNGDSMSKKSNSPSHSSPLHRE

S. cerevisiae Gcn5p, 35S-radiolabeled (from UniProt Q03330 1-439) (enzyme)
percent decrease of retained Gcn5p against WC-1 mini: 45%
